Measured values taken from article PMC3476531, “Synergy of Peptide and Sugar in O-GlcNAcase Substrate Recognition” (Chemistry & Biology, 2012).
Substitutions are numbered along the chain they refer to. *: point of attachment. βGlcNAc = CC(=O)N[C@@H]1[C@@H](O)[C@H](O)[C@@H](CO)O[C@H]1*

What was measured:
[1] = target: T1, human O-GlcNAcase (hOGA) Y69Q (human) (UniProt O60502)
T1 sequence: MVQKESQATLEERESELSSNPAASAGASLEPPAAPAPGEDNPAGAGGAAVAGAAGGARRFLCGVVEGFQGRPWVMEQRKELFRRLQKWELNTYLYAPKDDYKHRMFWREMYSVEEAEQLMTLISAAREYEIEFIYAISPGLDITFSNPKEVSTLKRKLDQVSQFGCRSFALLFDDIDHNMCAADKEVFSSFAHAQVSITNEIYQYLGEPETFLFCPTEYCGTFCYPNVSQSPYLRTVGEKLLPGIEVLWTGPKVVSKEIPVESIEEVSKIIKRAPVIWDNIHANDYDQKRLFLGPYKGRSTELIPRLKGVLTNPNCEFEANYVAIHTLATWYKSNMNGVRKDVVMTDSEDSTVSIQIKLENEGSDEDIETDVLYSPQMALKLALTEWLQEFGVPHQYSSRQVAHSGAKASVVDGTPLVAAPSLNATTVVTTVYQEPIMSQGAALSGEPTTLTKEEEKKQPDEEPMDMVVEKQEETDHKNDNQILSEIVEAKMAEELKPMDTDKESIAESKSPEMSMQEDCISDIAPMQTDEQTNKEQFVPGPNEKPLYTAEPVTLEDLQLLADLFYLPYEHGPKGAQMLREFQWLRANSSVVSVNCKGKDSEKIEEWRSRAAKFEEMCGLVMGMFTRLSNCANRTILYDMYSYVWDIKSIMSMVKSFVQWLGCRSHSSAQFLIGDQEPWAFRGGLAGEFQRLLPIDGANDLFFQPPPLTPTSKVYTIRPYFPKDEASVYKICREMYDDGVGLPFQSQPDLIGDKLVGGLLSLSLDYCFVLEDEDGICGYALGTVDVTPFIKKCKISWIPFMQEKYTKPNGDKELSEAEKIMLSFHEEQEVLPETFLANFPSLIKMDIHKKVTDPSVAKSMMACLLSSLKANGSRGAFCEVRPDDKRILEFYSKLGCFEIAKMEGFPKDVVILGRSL

[2] = target: T2, human O-GlcNAcase (hOGA) Y69S (human) (UniProt O60502)
T2 sequence: T1 sequence with Q69S

[3] = target: T3, human O-GlcNAcase (hOGA), wild-type (human) (UniProt O60502)
T3 sequence: T1 sequence with Q69Y

B1: TAB1 peptide PVSVPYS(O-GlcNAc)SAQSTS (peptide)
peptide: Ac-PVSVPYS(βGlcNAc)SAQSTS-NH2
SMILES: CC(=O)N[C@H]1[C@H](OC[C@H](NC(=O)[C@H](Cc2ccc(O)cc2)NC(=O)[C@@H]2CCCN2C(=O)[C@@H](NC(=O)[C@H](CO)NC(=O)[C@@H](NC(=O)[C@@H]2CCCN2C(C)=O)C(C)C)C(C)C)C(=O)N[C@@H](CO)C(=O)N[C@@H](C)C(=O)N[C@@H](CCC(N)=O)C(=O)N[C@@H](CO)C(=O)N[C@H](C(=O)N[C@@H](CO)C(N)=O)[C@@H](C)O)O[C@H](CO)[C@@H](O)[C@@H]1O
B1 was tested, and the KM of the glycopeptide substrate (substrate competition assay with 4MU-GlcNAc as reporter substrate) [1] was 3.6 mM, the KM of the glycopeptide substrate (substrate competition assay with 4MU-GlcNAc as reporter substrate) [2] was > 4 mM and the KM of the glycopeptide substrate (substrate competition assay with 4MU-GlcNAc as reporter substrate) [3] was 0.94 mM.
